The values below come from US20200002425A1.

For assay [1], the target named is TGFβ2 (UniProt P61812). Put plainly: SPR, binder immobilized by Fc capture, TGFβ2 as analyte, OneStep kinetic analysis on Pioneer FE (Fortebio). A general note: In SPR one partner is held on a chip, and binding of the other changes the refractive index at the surface.
Assay [2] deals with PD-L1 (soluble analyte in the SPR assay) (UniProt Q9NZQ7). The assay is described as follows: SPR, binder immobilized by Fc capture, PD-L1 as analyte, OneStep kinetic analysis on Pioneer FE (Fortebio).
Sequence of PD-L1 (soluble analyte in the SPR assay) (Q9NZQ7 19-238 limits assumed): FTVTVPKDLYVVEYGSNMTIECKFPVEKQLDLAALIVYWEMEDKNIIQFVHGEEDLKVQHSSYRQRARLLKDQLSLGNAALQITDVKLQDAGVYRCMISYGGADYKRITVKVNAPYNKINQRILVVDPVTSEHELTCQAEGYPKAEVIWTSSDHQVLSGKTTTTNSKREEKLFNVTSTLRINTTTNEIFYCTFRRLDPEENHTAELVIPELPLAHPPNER
The target of assay [3] is human PD-L1 expressed on cells (H441 lung tumor cells; MDA-MB-231 cells; artificial antigen presenting cells) (human) (UniProt Q9NZQ7). The assay is described as follows: flow cytometry on PD-L1+ H441 cells, APC anti-human IgG Fc detection; the table has no unit, pM is from the graph's axis Concentration(pM).
Sequence of human PD-L1 expressed on cells (H441 lung tumor cells; MDA-MB-231 cells; artificial antigen presenting cells) (human) (Q9NZQ7 19-290): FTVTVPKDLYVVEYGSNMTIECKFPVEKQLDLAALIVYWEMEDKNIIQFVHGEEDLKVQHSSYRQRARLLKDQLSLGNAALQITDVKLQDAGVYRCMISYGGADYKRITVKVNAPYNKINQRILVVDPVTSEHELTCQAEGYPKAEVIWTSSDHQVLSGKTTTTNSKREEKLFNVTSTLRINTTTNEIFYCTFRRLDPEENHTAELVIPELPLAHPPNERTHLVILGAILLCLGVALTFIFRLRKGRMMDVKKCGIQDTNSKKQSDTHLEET
Assay [4] has the same target. The assay is described as follows: cell-based or functional assay.
Assay [5] concerns the target TGFβ1 (human) (UniProt P01137). Put plainly: SPR, binder immobilized by Fc capture, TGFβ1 as analyte, OneStep kinetic analysis on Pioneer FE (Fortebio).

Sequence of TGFβ1 (human) (P01137 279-390 limits assumed): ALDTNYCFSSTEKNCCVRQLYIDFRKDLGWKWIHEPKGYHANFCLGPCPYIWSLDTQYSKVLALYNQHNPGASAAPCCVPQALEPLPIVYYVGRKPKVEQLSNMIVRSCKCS
Sequence of TGFβ2 (P61812 303-414 limits assumed): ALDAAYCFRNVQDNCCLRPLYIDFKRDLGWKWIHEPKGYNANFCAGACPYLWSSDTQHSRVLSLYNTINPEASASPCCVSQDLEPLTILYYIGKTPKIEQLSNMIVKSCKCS

The term Kd denotes the constant that tells how readily two partners part at equilibrium. High values mean lower affinity, low ones higher affinity. One may read the EC50 as the concentration needed to bring the measured effect to its halfway point. Consider “αPDL1/TXM/TGFβRII (N-810A); IL-15N72D:αPDL1/IL-15RαSu/Fc/TGFβRII fusion protein complex (from UniProt P40933 49-162) (Fc fusion)”, for which the Kd in assay [1] came to 0.52 nM; in assay [2], 7.6 nM; in assay [5], 0.24 nM. This substance also returned a half-maximal effective concentration (EC50) in assay [3] of 0.182 nM. Besides, the maximal killing, ADCC against PD-L1-positive MDA-MB-231 breast tumor cells in assay [4] is 30%.
